Earlier results on one substance are cited in publication PMC4340704.

This series has as its target Cys106 (UniProt position 106, LIAAICAGPTA). To be noted: reduced Cys106 thiol/thiolate implied; otherwise not stated.

In the case of “DJ-1 (Parkinson disease protein 7) (Homo sapiens)”, the pKa is 5.4.

Broadly, the pKa is the pH at which an ionisable group is half protonated.
